The data set in a line: soluble on expression in E. coli; label from the status in PepcDB or PDB records.
As for “CSSPQHASTVPGTTPSIWTGSPAPSGLSGHDEESPGAQSLTSTLTAPDGTKVATAKFEFANGYATVTIATTGVGKLTPGFHGLHIHQVGKCEPNSVAPTGGAPGNFLSAGGHYHVPGHTGTPASGDLASLQVRGDGSAMLVTTTDAFTMDDLLSGAKTAIIIHAGADNFANIPPERYVQVNGTPGPDETTLTTGDAGKRVACGVIGSG”, the “soluble on expression in E. coli” value is “soluble”.

In the case of “ANKMALLIDGPNMLRKEFNVDLDKVRDALEQFGDIVVGRVYLNQYASDKLIEAIANQGFEPRISAGDVDVEMAVEGTELIFNKNIDTIVYMTRDADFLPAIRKAKERGKQIIVVGAEPGFSTAIQNIADHVIRVEEDFE”, the “soluble on expression in E. coli” value is “not soluble”.

Take “MSLKFMSRFTFKQFHINQNSCAMKVGTDGILLGAWADVKHCKNILDMGCGTGLLALMLAQRTEENCQIQAVELDPIAAKQAQENINNSVWKNRIQLTQVDIQHFLQTTEQTFDLIVANPPYFEQGIACKNEERELARYTKQSHLNWLEWAATRLSENGRISFVLPYEAGKTLTKSTALFCIKQTNVITKIGKTPQRMLLTFAKQPEVLMQDQLVIYDADNQYTEAFIELTKDFYLKEGHHHHHH”: the “soluble on expression in E. coli” value was “soluble”.

On to “MNKTELIKAIAQDTGLTQVSVSKMLASFEKIITETVAKGDKVQLTGFLNIKPVARQARKGFNPQTQEALEIAPSVGVSVKPGESLKKAAEGLKYEDFAK”, for which the “soluble on expression in E. coli” value was “soluble”.

Regarding “GSVAVEDQPDVSAVLSAYNQQGDPTMYEEYYSGLKHFIECSLDCHRAELSQLFYPLFVHMYLELVYNQHENEAKSFFEKFHGDQECYYQDDLRVLSSLTKKEHMKGNETMLDFRTSKFVLRISRDSYQLLKRHLQEKQNNQIWNIVQEHLYIDIFD”, the “soluble on expression in E. coli” value is listed as “soluble”.

“MGSDKIHHHHHHMGRRSHSRSLSIWTNGVRVGRWTVPARGEMELQYDVDWVRADVGRPLSLSLPFNLQNLPLKGERVANYFDNLLPDSDAIRRRVAERFRTGSVDPFDLLKAIGRDCVGAVQILEDEEIPEGFDRIEGVPLSEEDIERHLIETVTPRAFAAGRDPDADFRISLAGAQEKTAFLWWGGQWLAPRGATSTSHIFKLPLGLVGGRRADFSTSVDNEWLCLKLLKAYGLDVAEASIATFGQQRVLVVERFDRRVAPNGQWLMRLPQEDFCQVEGCSPLRKYENEGGPGLKALFATLRQSVNAAVDMRTLMAAQILFWLLRAPDGHAKNFSIQLLPRGRFQLTRLYDVMSAYPVLGDGANQWSPFEIKLAMALIGKNRHYEMHGIQRRHFNSTAQKVGYGPTAEPIIEDLLARTPAIIAAVQADLPQDFSPRVADSVLGGLAQAAKSLGAMMP”: the “soluble on expression in E. coli” value is recorded as “not soluble”.

Take “SAATVPATTRSDQTWDFSCNLDVSFESEEHALIAYTSLAVDKELQPDKVRRVMSVSNNKLSVHFEAIEARLLRASFSAFVDVLTLATRTIQEFGQK”: the “soluble on expression in E. coli” value was “soluble”.

“MNLKDKILGVAKELFIKNGYNATTTGEIVKLSESSKGNLYYHFKTKENLFLEILNIEESKWQEQWKKEQIKCKTNREKFYLYNELSLTTEYYYPLQNAIIEFYTEYYKTNSINEKMNKLENKYIDAYHVIFKEGNLNGEWSINDVNAVSKIAANAVNGIVTFTHEQNINERIKLMNKFSQIFLNGLSKHHHHHH”: the “soluble on expression in E. coli” value is “soluble”.

With “MNLDDKSLFLDAMEDVQPLKRATDVHWHPTRNQRAPQRIDTLQLDNFLTTGFLDIIPLSQPLEFRREGLQHGVLDKLRSGKYPQQASLNLLRQPVEECRKMVFSFIQQALADGLRNVLIIHGKGRDDKSHANIVRSYVARWLTEFDDVQAYCTALPHHGGSGACYVALRKTAQAKQENWERHAKRSR”, the “soluble on expression in E. coli” value was “soluble”.

Take “KGNTFLWLDDILYCERVDGLVFAYTKNKVYQIFHSLRDLEASYYRLGYVRCSKSMIVNIYKIHYFNSEPYGRIRATMENKEEIIISRKYANRIRTILQ”: the “soluble on expression in E. coli” value is recorded as “not soluble”.

Regarding “MMKLRIEIDGNLEETEIVIKTPTLTDEIADLQRLLQESKAPRLTFYKGTGEYYLDLSEILFFETEGSKIYAHNQKEAYEVRLKLYELESILPRYFNRVSKSTIANIRQIYSVDKSFSGTGTISFYQTHKEVHVSRHYQSLLKENLRNMR”, the “soluble on expression in E. coli” value is on record as “not soluble”.

As to PDVKCVCCTEGKECACFGQDCCVTGECCKDGTCCGI, the “soluble on expression in E. coli” value is “soluble”.

Take “MTNNPLIPQSKLPQLGTTIFTQMSALAQQHQAINLSQGFPDFDGPRYLQERLAHHVAQGANQYAPMTGVQALREAIAQKTERLYGYQPDADSDITVTAGATEALYAAITALVRNGDEVICFDPSYDSYAPAIALSGGIVKRMALQPPHFRVDWQEFAALLSERTRLVILNTPHNPSATVWQQADFAALWQAIAGHEIFVISDEVYEHINFSQQGHASVLAHPQLRERAVAVSSFGKTYHMTGWKVGYCVAPAPISAEIRKVHQYLTFSVNTPAQLALADMLRAEPEHYLALPDFYRQKRDILVNALNESRLEILPCEGTYFLLVDYSAVSTLDDVEFCQWLTQEHGVAAIPLSVFCADPFPHKLIRLCFAKKESTLLAAAERLRQL”: the “soluble on expression in E. coli” value is reported as “soluble”.

“MGMIQLQNPSHPTGLLCKANQMRLAGTLCDVVIMVDSQEFHAHRTVLACTSKMFEILFHRNSQHYTLDFLSPKTFQQILEYAYTATLQAKAEDLDDLLYAAEILEIEYLEEQCLKMLETIQ”: the “soluble on expression in E. coli” value is reported as “soluble”.

Turning to “MLERTQVFVDTSYLLASFYNSWETGARAQLEIDLPEVVGVLGRMIEQQLKQPVQRQMWYDGIPDSGPHRYQRALRTCDGVQLRAGQLIEWGERRTQKAVDTRLVADLVLAGVRGQCSDIVLVSGDADMIPGVQEAANAGLRVHLYGFGWDSMSSQLRHCCDTTTILDPREDFAECMQLQVLEGPLPPVVRVKPINDAEPIEDLDFTPVPGVASPFEEVSAKDEKFSPRPSEPAEALSEQVCEAQYEISKHEGQTADSGEITESFEAAEIKVTEFFGEPAAPVAESGVEAPTPEAPTVPEAAKPTPAKPKTPKAEPQKQESPKPGTPKPKAPSPADIPPKAPADTEEHSEVEAEIEDSRPKIPSPSMMAPRRKLRSRYVPLPNEVWATAGFQTPYDVGQQYASWWFENAATSTQRDQAHLLSGGGLPPEIDRPLLQFACETLHEYTLTEAQRVALRDGFHSGIRGVLLNQRDS”, the “soluble on expression in E. coli” value was “soluble”.

As to “GPGSMLSQYLRKRVSVVTVDGRNLVGVLHAADQLLNIVLTSCVERTGAPYDFDDGAAEEDNGSVVDEGVSTAFSGGDTASGALPPLEEVHLGVMMLRGADVVSIAAIDVYEEAGTNVKDWRGRDMPPATAVARSW”, the “soluble on expression in E. coli” value was “soluble”.

“MTIDVWMQHPTQRFLHGDMFASLRRWTGGSIPETDIPIEATVSSMDAGGVTLGLLSAWRGPNGQDLISNDAVAEWVRLYPNRFAGLAAVDLDRPMAAVRELRRRVGEGFVGLRVVPWLWGAPPTDRRYYPLFAECVQSAVPFCTQVGHTGPLRPSETGRPIPYIDQVALDFPELVIVCGHVGYPWTEEMVAVARKHENVYIDTSAYTIKRLPGKLVRFMKTDTGQRKVLFGTNYPMIAHTHALTGLDELGLSDEARRDFLHGNAVRVFKLDPRGKVQT”: the “soluble on expression in E. coli” value was “not soluble”.

As to “SIEFSTAITRQIVLDTETTGMNQIGAHYEGHKIIEIGAVEVVNRRLTGNNFHVYLKPDRLVDPEAFGVHGIADEFLLDKPTFAEVADEFMDYIRGAELVIHNAAFDIGFMDYEFSLLKRDIPKTNTFCKVTDSLAVARKMFPGKRNSLDALCARYEIDNSKRTLHGALLDAQILAEVYLAMTGGQTSMATRESG”, the “soluble on expression in E. coli” value is recorded as “soluble”.

For the sequence “MAFSMLFTGHAECVKFVKKFNLPLLVTGGGGYTKENVARCWTVETGILLDTELPNEISENDYIKYFAPDFSLKIPGGHIENLNTKSYISSIKVQILENLRYIQHAPSVQMQEVPPDFYIPDFDEDEQNPDVRVDQRSRDKQIQRDDEYFDGDNDNDAS”, the “soluble on expression in E. coli” value is reported as “not soluble”.

With “SNVFARSSVLAAEMIDVFDRTHTEKELVFQSKELCRDFIHSRITREGLSWSKVELDLPEPRGVLVDVSVVLLKLGDELECMRPYVYRNIAKQLNISVSVEAVVSDAFLSVATEVIAMGITWGKVVAIYAVAAGLAVDCVRLGHPVMVHTIVDSLGEFVRRSLVPWLKKRGGWVDILKCVVNMDSRAHVHWLSTAVLTWREFIKTMYVYLTK”, the “soluble on expression in E. coli” value was “soluble”.

Consider “MDPSSIDLGSIPGGSEQQQHEDGAAAAAGSPKEVFRSQQSLGLITQRFMSLRQRNEVLNLNEVAKELNISKRRVYDVINVLEGLGYVEKVEKNNIRWIGDNNNSEEQNALEARVEMLRQQEKLLELMIRDAQAIIELHFEDPIERPYNYVSKEDIRKTAEPNTKSIIVKSELDTSSSFEIQVTDPSTSGSHDMIVRNKNGVKSHALLFTNDPPEYGDEEDEDDVKKLSSQKRFETSEALRVTLAEMLTDPTTISSSPKHIKLEEPEEIDTEDLETFAPPEFSENKWSQKIGGGLAILWAWLALMPRPQNGNFFSAKFFKFFPETVARKTFVLPPSTSASQSNAPYLPETPGRGLFFSPFKSLIDPCILPSFSDDLTSGYINITTPSRATGAGAGASGQEDEEPVSVMDFFSD”, for which the “soluble on expression in E. coli” value is reported as “not soluble”.

As to “MSAQVSLELHHRISQFLFHEASLLDDWKFRDWLAQLDEEIRYTMRTTVNAQTRDRRKGVQPPTTWIFNDTKDQLERRIARLETGMAWAEEPPSRTRHLISNCQISETDIPNVFAVRVNYLLYRAQKERDETFYVGTRFDKVRRLEDDNWRLLERDIVLDQAVITSHNLSVLF”, the “soluble on expression in E. coli” value is reported as “soluble”.

On to “KSLLTAKTRNTIIFAFHPQAQKSSVAAAKIVYQAARKAGAPKDFIQWIETPSLENTTALMQNPEIASILATGGPSMVHAALTSGNPSMGVGAGNGAVFIDHTARVRRAAEDLLLSKRFDNGMICATE”, for which the “soluble on expression in E. coli” value was “not soluble”.

Consider “MGSDKIHHHHHHMLTSDPSESTAHLQRTISNLSARNAKLAELLKASRDKLSILQDQLEDLAAPPSTYGTFLEFSGGRETAEVFTAGRHMRLRISPDVEKAELVPGVQVRLGEASQVVEVCDISTTGQLATLVELLADNRGLICDHTGEERVVKLAAALTEGVDKLPKAGDTLLVDPRAGYAFEVIPKTEVSTLALEEVPDVTYADIGGLNSQIELIHDAVELPFTQPDLYRAYDLKPPKGVLLYGPPGCGKTLIAKAVANSLAQRIGAGNRSYFINVKGPELLNKYVGETERRIRLIFERARELAEEGRPVIVFFDEMESIFRTRGSGVSSDMETTVVPQLLTELDGVESLSNVIIIGATNREELIDPAILRPGRLDVKIRVERPDKQAARDVFARHLKQNIPTAEPIDSLINNAVDHLYADNPYVELSLIDGSTEILHYRDFVSGAMIANIVDRAKKCAIKDHIAGRHSGVASEHLIAAINAENHESEDLPNTSNPDDWSRIIGRHGLRVAHARVLGGQR”, for which the “soluble on expression in E. coli” value is on record as “not soluble”.

Turning to “MRSSAKQEELVKAFKALLKEEKFSSQGEIVAALQEQGFDNINQSKVSRMLTKFGAVRTRNAKMEMVYCLPAELGVPTT”, the “soluble on expression in E. coli” value was “soluble”.

Turning to “MSCYYYCKYCKEYKNKHHDCCKNTSKCHDNKDNLVRASAFRARNTVNQNVPANTFVKVLFQNEQFDLANEYNPATSIFMPKTKGVYSIIGTIGFFPNDPTLNYRARVEIRVNGNAAIAIDNDFFGPISFGNVVSVSTIVQLNAGDEVEIYAQSSIDGVLSPLEDGAHFEAARFPSPIKLEHHHHHH”, the “soluble on expression in E. coli” value is reported as “not soluble”.

Source of the values: the DeepSol protein solubility set.
